Experimental data as given in article PMC9482650, “Quantitative fragmentomics allow affinity mapping of interactomes” (Nature Communications, 2022).

Legend:
Assay in all cases: holdup assay
Set-up in all cases: key: below the threshold = too weak to quantify, mostly under pKd 3.1 to 4
Conditions in all cases: plain residues with an end cap or a label only (N-terminal biotin on a linker: ado-ado)
DLG3_1, Q92796 = biological target: T1, DLG3_1, Q92796
T1 sequence (Q92796 125-227, limits assumed, looked up): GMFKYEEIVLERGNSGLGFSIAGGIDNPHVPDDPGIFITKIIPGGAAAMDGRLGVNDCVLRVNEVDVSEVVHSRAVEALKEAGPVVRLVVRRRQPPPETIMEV

DLG4_2, P78352 = biological target: DLG4_2, P78352
Sequence of DLG4_2, P78352 (P78352 155-259): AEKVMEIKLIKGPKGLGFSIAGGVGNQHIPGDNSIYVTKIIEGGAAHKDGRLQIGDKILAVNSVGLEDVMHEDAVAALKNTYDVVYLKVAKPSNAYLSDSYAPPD

DLG4_3, P78352 = biological target: DLG4_3, P78352
Sequence of DLG4_3, P78352 (P78352 306-403): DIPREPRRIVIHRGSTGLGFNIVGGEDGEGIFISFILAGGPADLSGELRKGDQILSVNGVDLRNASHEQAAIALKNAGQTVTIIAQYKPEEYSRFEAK

FRMPD1, Q5SYB0 = biological target: T2, FRMPD1, Q5SYB0
T2 sequence (Q5SYB0 52-145, limits assumed, looked up): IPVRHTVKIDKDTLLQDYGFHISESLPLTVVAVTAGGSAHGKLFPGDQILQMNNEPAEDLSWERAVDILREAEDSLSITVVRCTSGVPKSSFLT

FRMPD2_1, Q68DX3 = biological target: FRMPD2_1, Q68DX3
Sequence of FRMPD2_1, Q68DX3 (Q68DX3 770-861): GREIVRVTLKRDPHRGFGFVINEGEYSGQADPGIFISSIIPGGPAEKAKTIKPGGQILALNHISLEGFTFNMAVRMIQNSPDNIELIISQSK

GRIP2_3, Q9C0E4 = biological target: GRIP2_3, Q9C0E4
Sequence of GRIP2_3, Q9C0E4 (Q9C0E4 238-339): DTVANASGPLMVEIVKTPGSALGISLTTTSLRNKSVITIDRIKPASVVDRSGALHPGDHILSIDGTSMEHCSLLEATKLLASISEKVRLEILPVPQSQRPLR

HTRA1, Q92743 = biological target: HTRA1, Q92743
Sequence of HTRA1, Q92743 (Q92743 360-477): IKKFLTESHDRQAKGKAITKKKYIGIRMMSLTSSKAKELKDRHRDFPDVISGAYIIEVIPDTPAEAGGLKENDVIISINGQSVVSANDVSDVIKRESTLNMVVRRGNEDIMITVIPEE

HTRA2, O43464 = biological target: HTRA2, O43464
Sequence of HTRA2, O43464 (O43464 355-458): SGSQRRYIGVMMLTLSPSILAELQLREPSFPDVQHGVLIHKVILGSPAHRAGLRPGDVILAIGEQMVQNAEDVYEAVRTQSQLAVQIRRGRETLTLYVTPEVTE

IL16_1, Q14005 = biological target: IL16_1, Q14005
Sequence of IL16_1, Q14005 (Q14005 210-306): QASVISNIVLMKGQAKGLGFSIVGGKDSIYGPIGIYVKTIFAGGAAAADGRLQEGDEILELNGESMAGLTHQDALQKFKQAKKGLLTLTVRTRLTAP

IL16_3, Q14005 = biological target: IL16_3, Q14005
Sequence of IL16_3, Q14005 (Q14005 1107-1207): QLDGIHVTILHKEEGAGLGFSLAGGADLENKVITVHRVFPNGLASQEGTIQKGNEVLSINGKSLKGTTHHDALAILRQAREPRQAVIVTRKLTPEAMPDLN

IL16_4, Q14005 = biological target: IL16_4, Q14005
Sequence of IL16_4, Q14005 (Q14005 1229-1329): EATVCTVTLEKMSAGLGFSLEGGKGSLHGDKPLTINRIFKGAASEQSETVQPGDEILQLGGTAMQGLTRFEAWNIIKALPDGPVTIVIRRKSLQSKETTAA

Inadl_4, Q8NI35 = biological target: Inadl_4, Q8NI35
Sequence of Inadl_4, Q8NI35 (Q8NI35 547-651): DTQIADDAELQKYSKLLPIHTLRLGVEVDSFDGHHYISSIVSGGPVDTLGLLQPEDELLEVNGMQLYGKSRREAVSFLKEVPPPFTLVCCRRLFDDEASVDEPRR

Inadl_8, Q8NI35 = biological target: Inadl_8, Q8NI35
Sequence of Inadl_8, Q8NI35 (Q8NI35 1425-1530): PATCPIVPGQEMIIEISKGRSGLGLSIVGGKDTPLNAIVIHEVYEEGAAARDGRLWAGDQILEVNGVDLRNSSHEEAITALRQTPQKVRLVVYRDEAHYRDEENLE

LIMK2, P53671 = biological target: LIMK2, P53671
Sequence of LIMK2, P53671 (P53671 143-248): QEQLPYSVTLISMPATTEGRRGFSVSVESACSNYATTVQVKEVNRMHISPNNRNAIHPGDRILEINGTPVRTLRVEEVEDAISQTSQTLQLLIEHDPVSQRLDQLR

LIN7B, Q9HAP6 = biological target: T3, LIN7B, Q9HAP6
T3 sequence (Q9HAP6 88-185, limits assumed, looked up): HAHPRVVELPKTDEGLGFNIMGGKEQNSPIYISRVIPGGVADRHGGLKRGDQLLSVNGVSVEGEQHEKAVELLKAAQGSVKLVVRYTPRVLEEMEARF

LNX2_2, Q8N448 = biological target: T4, LNX2_2, Q8N448
T4 sequence (Q8N448 334-432, limits assumed, looked up): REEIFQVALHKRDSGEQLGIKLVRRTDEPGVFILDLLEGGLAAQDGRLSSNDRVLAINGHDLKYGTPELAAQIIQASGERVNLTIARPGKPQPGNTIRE

MPP2, Q14168 = biological target: T5, MPP2, Q14168
T5 sequence (Q14168 180-250, limits assumed, looked up): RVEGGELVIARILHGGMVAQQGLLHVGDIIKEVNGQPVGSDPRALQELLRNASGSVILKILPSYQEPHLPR

NHERF4_1, Q86UT5-2 = biological target: NHERF4_1, Q86UT5-2
Sequence of NHERF4_1, Q86UT5-2 (Q86UT5 other isoform, or with tags, fused parts or gaps): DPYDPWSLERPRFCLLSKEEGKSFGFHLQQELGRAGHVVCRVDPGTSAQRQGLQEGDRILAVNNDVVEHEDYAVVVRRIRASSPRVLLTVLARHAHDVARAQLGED

PARD3_3, Q8TEW0 = biological target: PARD3_3, Q8TEW0
Sequence of PARD3_3, Q8TEW0 (Q8TEW0 582-685): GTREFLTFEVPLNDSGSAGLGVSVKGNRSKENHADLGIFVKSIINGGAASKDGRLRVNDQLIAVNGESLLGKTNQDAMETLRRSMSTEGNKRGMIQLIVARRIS

PCLO, Q9Y6V0 = biological target: T6, PCLO, Q9Y6V0
T6 sequence (Q9Y6V0 4491-4600, limits assumed, looked up): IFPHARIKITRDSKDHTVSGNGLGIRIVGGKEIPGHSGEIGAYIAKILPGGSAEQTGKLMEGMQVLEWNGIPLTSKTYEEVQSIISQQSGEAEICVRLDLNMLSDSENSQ

PDLIM1, O00151 = biological target: PDLIM1, O00151
Sequence of PDLIM1, O00151 (O00151 1-87): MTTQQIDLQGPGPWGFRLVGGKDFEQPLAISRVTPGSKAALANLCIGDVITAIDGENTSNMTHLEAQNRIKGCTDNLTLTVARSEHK

PDZRN3_1, Q9UPQ7 = biological target: T7, PDZRN3_1, Q9UPQ7
T7 sequence (Q9UPQ7 244-349, limits assumed, looked up): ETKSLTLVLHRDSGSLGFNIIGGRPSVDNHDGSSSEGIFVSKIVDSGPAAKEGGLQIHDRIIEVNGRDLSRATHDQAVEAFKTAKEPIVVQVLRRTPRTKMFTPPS

RHPN1, Q8TCX5 = biological target: T8, RHPN1, Q8TCX5
T8 sequence (Q8TCX5 508-602, limits assumed, looked up): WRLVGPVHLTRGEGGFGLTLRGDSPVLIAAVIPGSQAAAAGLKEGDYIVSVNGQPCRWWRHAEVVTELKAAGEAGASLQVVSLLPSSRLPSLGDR

SNTA1, Q13424 = biological target: T9, SNTA1, Q13424
T9 sequence (Q13424 82-180, limits assumed, looked up): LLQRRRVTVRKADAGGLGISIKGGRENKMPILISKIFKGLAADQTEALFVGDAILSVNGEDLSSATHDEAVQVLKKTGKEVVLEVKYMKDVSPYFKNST

SNTG2, Q9NY99 = biological target: T10, SNTG2, Q9NY99
T10 sequence (Q9NY99 68-166, limits assumed, looked up): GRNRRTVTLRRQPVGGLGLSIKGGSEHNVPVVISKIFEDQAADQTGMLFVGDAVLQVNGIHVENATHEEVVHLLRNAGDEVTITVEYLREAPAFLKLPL

SNX27, Q96L92 = biological target: SNX27, Q96L92
TX1BP3, O14907 = biological target: T11, TX1BP3, O14907
T11 sequence (O14907 10-122, limits assumed, looked up): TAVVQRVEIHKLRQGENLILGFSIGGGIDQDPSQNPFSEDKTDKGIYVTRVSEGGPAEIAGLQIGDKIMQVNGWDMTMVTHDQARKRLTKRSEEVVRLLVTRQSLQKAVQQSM

TGLWKSETTV [ADGRA2, Q96PE1]
pKd (DLG3_1, Q92796): 4.43 | pKd (DLG4_2, P78352): 5.22 | pKd (DLG4_3, P78352): 4.47 | pKd (FRMPD1, Q5SYB0): below the threshold | pKd (FRMPD2_1, Q68DX3): below the threshold | pKd (GRIP2_3, Q9C0E4): below the threshold | pKd (HTRA1, Q92743): 4.27 | pKd (HTRA2, O43464): below the threshold | pKd (IL16_1, Q14005): 3.77 | pKd (IL16_3, Q14005): below the threshold | pKd (IL16_4, Q14005): below the threshold | pKd (Inadl_4, Q8NI35): below the threshold | pKd (Inadl_8, Q8NI35): 3.65 | pKd (LIMK2, P53671): below the threshold | pKd (LIN7B, Q9HAP6): 3.51 | pKd (LNX2_2, Q8N448): 4.98 | pKd (MPP2, Q14168): below the threshold | pKd (NHERF4_1, Q86UT5-2): below the threshold | pKd (PARD3_3, Q8TEW0): below the threshold | pKd (PCLO, Q9Y6V0): below the threshold | pKd (PDLIM1, O00151): below the threshold | pKd (PDZRN3_1, Q9UPQ7): 4.07 | pKd (RHPN1, Q8TCX5): 4.33 | pKd (SNTA1, Q13424): 4.41 | pKd (SNTG2, Q9NY99): 4.14 | pKd (SNX27, Q96L92): 5.4 | pKd (TX1BP3, O14907): 4.87

NLQEHSTTSV [RSBN1, Q5VWQ0]
pKd (DLG3_1, Q92796): below the threshold | pKd (DLG4_2, P78352): 3.88 | pKd (DLG4_3, P78352): 3.59 | pKd (FRMPD1, Q5SYB0): below the threshold | pKd (FRMPD2_1, Q68DX3): below the threshold | pKd (GRIP2_3, Q9C0E4): below the threshold | pKd (HTRA1, Q92743): 3.74 | pKd (HTRA2, O43464): below the threshold | pKd (IL16_1, Q14005): below the threshold | pKd (IL16_3, Q14005): below the threshold | pKd (IL16_4, Q14005): below the threshold | pKd (Inadl_4, Q8NI35): below the threshold | pKd (Inadl_8, Q8NI35): 3.81 | pKd (LIMK2, P53671): below the threshold | pKd (LIN7B, Q9HAP6): below the threshold | pKd (LNX2_2, Q8N448): 4.05 | pKd (MPP2, Q14168): below the threshold | pKd (NHERF4_1, Q86UT5-2): below the threshold | pKd (PARD3_3, Q8TEW0): below the threshold | pKd (PCLO, Q9Y6V0): below the threshold | pKd (PDLIM1, O00151): below the threshold | pKd (PDZRN3_1, Q9UPQ7): below the threshold | pKd (RHPN1, Q8TCX5): 4.04 | pKd (SNTA1, Q13424): below the threshold | pKd (SNTG2, Q9NY99): below the threshold | pKd (SNX27, Q96L92): 5.48 | pKd (TX1BP3, O14907): 3.97

FTLPAESSEI [PLEKHG7, Q6ZR37]
pKd (DLG3_1, Q92796): below the threshold | pKd (DLG4_2, P78352): below the threshold | pKd (DLG4_3, P78352): below the threshold | pKd (FRMPD1, Q5SYB0): below the threshold | pKd (FRMPD2_1, Q68DX3): below the threshold | pKd (GRIP2_3, Q9C0E4): below the threshold | pKd (HTRA1, Q92743): 3.52 | pKd (HTRA2, O43464): below the threshold | pKd (IL16_1, Q14005): below the threshold | pKd (IL16_3, Q14005): below the threshold | pKd (IL16_4, Q14005): below the threshold | pKd (Inadl_4, Q8NI35): below the threshold | pKd (Inadl_8, Q8NI35): below the threshold | pKd (LIMK2, P53671): below the threshold | pKd (LIN7B, Q9HAP6): 3.61 | pKd (LNX2_2, Q8N448): below the threshold | pKd (MPP2, Q14168): below the threshold | pKd (NHERF4_1, Q86UT5-2): below the threshold | pKd (PARD3_3, Q8TEW0): below the threshold | pKd (PCLO, Q9Y6V0): below the threshold | pKd (PDLIM1, O00151): below the threshold | pKd (PDZRN3_1, Q9UPQ7): below the threshold | pKd (RHPN1, Q8TCX5): 4.68 | pKd (SNTA1, Q13424): below the threshold | pKd (SNTG2, Q9NY99): below the threshold | pKd (SNX27, Q96L92): below the threshold | pKd (TX1BP3, O14907): below the threshold

HLRQQGSVEV [EPHB6, O15197]
pKd (DLG3_1, Q92796): below the threshold | pKd (DLG4_2, P78352): 3.72 | pKd (DLG4_3, P78352): below the threshold | pKd (FRMPD1, Q5SYB0): below the threshold | pKd (FRMPD2_1, Q68DX3): 4.14 | pKd (GRIP2_3, Q9C0E4): below the threshold | pKd (HTRA1, Q92743): 4.59 | pKd (HTRA2, O43464): below the threshold | pKd (IL16_1, Q14005): below the threshold | pKd (IL16_3, Q14005): below the threshold | pKd (IL16_4, Q14005): below the threshold | pKd (Inadl_4, Q8NI35): below the threshold | pKd (Inadl_8, Q8NI35): below the threshold | pKd (LIMK2, P53671): below the threshold | pKd (LIN7B, Q9HAP6): below the threshold | pKd (LNX2_2, Q8N448): 5.03 | pKd (MPP2, Q14168): below the threshold | pKd (NHERF4_1, Q86UT5-2): 3.71 | pKd (PARD3_3, Q8TEW0): below the threshold | pKd (PCLO, Q9Y6V0): below the threshold | pKd (PDLIM1, O00151): below the threshold | pKd (PDZRN3_1, Q9UPQ7): below the threshold | pKd (RHPN1, Q8TCX5): below the threshold | pKd (SNTA1, Q13424): below the threshold | pKd (SNTG2, Q9NY99): below the threshold | pKd (SNX27, Q96L92): 3.76 | pKd (TX1BP3, O14907): 3.85
